The values below are quoted from earlier work in article PMC12728182.

Data set [1] concerns the target PAK1 (Homo sapiens) (UniProt Q13153).
Data set [2] addresses WASP (Homo sapiens) (UniProt P42768).
The target of data set [3] is ACK (Homo sapiens) (UniProt Q07912).
Sequence of ACK (Homo sapiens) (Q07912 whole entry): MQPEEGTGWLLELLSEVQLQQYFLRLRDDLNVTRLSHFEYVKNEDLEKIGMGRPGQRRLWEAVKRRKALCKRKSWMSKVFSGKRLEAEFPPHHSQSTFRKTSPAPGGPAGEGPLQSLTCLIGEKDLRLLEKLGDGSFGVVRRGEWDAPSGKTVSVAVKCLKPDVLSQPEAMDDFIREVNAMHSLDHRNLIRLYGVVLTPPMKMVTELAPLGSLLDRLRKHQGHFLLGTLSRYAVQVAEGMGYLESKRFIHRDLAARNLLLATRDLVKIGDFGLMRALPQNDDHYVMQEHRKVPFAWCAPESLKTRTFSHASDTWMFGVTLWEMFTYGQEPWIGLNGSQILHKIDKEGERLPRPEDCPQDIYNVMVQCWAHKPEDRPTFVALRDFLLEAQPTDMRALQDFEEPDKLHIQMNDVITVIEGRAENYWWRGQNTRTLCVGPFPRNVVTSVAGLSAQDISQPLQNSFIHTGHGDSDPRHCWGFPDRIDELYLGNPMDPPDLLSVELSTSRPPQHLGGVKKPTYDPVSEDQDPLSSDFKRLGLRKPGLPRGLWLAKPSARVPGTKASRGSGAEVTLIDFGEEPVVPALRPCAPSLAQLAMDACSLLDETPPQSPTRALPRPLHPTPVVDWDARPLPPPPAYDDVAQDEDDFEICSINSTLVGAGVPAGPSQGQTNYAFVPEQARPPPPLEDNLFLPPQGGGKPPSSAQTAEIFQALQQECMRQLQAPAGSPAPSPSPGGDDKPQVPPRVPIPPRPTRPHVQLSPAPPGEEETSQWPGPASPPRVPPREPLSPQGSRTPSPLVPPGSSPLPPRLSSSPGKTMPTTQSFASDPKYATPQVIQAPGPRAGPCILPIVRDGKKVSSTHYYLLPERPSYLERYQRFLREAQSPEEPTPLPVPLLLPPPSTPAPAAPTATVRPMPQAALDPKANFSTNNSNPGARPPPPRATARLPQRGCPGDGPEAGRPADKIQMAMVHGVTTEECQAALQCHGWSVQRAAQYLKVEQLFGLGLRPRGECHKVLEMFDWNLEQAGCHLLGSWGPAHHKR

Sequence of Cdc42 (P60953 1-188): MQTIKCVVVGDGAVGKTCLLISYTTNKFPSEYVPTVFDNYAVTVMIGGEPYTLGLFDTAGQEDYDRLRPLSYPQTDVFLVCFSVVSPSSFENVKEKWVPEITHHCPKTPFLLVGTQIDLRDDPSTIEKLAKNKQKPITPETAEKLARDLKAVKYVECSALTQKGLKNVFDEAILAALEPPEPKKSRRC
Sequence of PAK1 (Homo sapiens) (Q13153 2-545): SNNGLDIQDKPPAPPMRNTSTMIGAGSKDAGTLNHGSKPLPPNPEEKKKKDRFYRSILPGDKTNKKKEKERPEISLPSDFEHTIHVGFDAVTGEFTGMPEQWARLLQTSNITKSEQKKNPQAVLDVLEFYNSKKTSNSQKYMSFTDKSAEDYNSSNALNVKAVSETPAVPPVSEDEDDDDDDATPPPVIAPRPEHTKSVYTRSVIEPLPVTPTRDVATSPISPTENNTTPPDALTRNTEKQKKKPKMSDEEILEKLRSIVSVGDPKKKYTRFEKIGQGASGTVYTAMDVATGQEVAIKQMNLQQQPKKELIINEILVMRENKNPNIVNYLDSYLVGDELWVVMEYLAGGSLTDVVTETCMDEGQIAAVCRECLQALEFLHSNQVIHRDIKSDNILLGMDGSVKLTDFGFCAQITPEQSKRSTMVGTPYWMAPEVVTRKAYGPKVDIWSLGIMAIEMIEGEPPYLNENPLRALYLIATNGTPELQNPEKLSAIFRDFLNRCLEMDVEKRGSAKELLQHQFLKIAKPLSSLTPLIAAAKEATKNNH
Sequence of WASP (Homo sapiens) (P42768 2-502): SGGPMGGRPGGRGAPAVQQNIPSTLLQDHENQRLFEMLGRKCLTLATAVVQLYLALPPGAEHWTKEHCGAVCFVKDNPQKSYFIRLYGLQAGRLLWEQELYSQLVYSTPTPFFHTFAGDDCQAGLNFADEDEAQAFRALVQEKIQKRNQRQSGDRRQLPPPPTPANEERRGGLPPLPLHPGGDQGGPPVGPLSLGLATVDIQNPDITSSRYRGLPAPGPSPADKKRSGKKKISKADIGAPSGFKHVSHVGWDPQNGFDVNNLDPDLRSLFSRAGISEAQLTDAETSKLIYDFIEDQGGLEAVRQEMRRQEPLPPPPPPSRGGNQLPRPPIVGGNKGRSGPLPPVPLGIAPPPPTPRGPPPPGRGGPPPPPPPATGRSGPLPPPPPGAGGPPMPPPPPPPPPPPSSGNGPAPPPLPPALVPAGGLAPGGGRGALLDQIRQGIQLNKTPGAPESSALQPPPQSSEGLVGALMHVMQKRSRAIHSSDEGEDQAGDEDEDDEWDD

In the case of Cdc42 (from UniProt P60953), the Kd was 620 nM in data set [1], 55 nM in data set [2] and 770 nM in data set [3].

By Kd is commonly meant the concentration at which binding is half-saturated.
